# Reference: article doi:10.1101/2025.10.06.680090
# Target: HAdV-C5 capsid (replication-defective, E1-deleted vector HAdV-C5-GFP) (human adenovirus type C5)
# Assay: SPR
substance,measurement,value
recombinant human langerin protein (hCD207) (from UniProt Q9UJ71 1-328) (receptor),Kd,39 nM
